Data on 1 substance can be found in article PMC3688876.

This assay has as its target Apo2L/TRAIL-R1/DR4 (human (endogenous in MCF-7)) (UniProt O00220).
Sequence of UniProt O00220 (O00220 24-468): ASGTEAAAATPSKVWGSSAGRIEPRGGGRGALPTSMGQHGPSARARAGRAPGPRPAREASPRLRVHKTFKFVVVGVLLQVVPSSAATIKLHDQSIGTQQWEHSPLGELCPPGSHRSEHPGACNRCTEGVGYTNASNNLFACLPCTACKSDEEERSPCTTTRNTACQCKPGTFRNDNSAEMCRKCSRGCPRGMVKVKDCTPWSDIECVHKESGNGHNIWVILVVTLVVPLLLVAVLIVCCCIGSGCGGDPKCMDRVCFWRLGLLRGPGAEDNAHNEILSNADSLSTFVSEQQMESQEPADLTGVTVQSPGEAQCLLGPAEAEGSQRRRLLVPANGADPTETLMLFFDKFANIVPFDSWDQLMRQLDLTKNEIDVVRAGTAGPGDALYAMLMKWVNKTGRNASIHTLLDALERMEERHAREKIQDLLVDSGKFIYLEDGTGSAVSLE

The substance “Human recombinant Apo2L/TRAIL (from UniProt P50591 1-281) (ligand)” registered a cellular apoptosis (viability by crystal violet, OD570) of MCF-7 PTHrP overexpressing cells pre-incubated with antagonistic anti-TRAIL-R1 antibody (10 µg/ml), then treated with 100 ng/ml Apo2L/TRAIL of 50%.
